{
  "source": "patent US9540337B2",
  "about": "“Gamma-glutamyl transpeptidase inhibitors and methods of use” (The Board of Regents of the University of Oklahoma, priority 2012, dated 2017)",
  "key": {"[1]": {"system": "T1, N[C@H](CCC(=O)Nc1ccc([N+](=O)[O-])cc1)C(=O)O", "T1 construct": "lacking the transmembrane domain; made in house; host or cells: Pichia pastoris", "assay": "Initial rate studies with D-GpNA and L-GpNA, with or without acceptor GlyGly", "type": "biochemical, human", "conditions": "pH 7.4, 37.0 °C", "procedure": "(§1) Transpeptidation Reaction: The same assay buffer was used for both the hydrolysis reaction and the transpeptidation reaction. The transpeptidation reaction included 40 mM glycylglycine (glygly, Sigma, St. Louis, Mo.) as the acceptor. The concentration of the substrate for the transpeptidation reaction, L-GpNA (Sigma) was varied from 0.25 mM to 3 mM. The concentration of L-GpNA was 3 mM for experiments in which the concentration of glygly was varied. To initiate the transpeptidation reaction, 4 mU GGT were added.\n(§2) 1. […] 2, which describes a ping pong kinetic mechanism. […] 3 and 4. […] 5 (25).\n(§3) In eq. […] Data for noncompetitive inhibition were fitted to eq. 6. […] 6 [25].\n(§4) Initial Rate Studies with D-GpNA and L-GpNA: In this study, the inhibition of both the GGT hydrolysis and transpeptidation reactions by OU749 and a new series of thiadiazol sulfonamide analogs was studied. The hydrolysis and transpeptidation reactions were analyzed separately by using different stereo-isomers of the γ-glutamyl-p-nitroanilide (GpNA) substrate. The kinetics of both reactions were first characterized in the absence of inhibitors. Cleavage of the γ-glutamyl bond of either D-GpNA or L-GpNA releases p-nitroanaline, which has an OD405 of 7,680 M^−1 cm^−1, allowing for the reactions to be monitored continuously with high sensitivity. The D-glutamyl isomer of GpNA was used as the substrate for the hydrolysis reaction, in which water serves as the acceptor. The L-glutamyl isomer of GpNA, with glycylglycine (GlyGly) as an acceptor, was used for the transpeptidation reaction. L-GpNA can serve as both a substrate and a low affinity acceptor, while D-GpNA is unable to serve as an acceptor (18, 21, 26). Therefore, in the absence of an added acceptor GGT exclusively catalyzes a hydrolysis reaction with D-GpNA as the substrate. When L-GpNA is used as a substrate, the GGT reaction is a mixture of both the hydrolysis and transpeptidation reactions. Under these conditions, the rate of the reaction is the sum of hydrolysis and transpeptidation reactions, with the hydrolysis reaction contributing more at low L-GpNA concentrations and transpeptidation dominating at saturating substrate concentrations. […] However, the maximum rate (Vmax) obtained with L-GpNA was approximately 3-times faster than that measured with D-GpNA, and the KGpNA for L-GpNA was 5-times higher than that measured for D-GpNA. This is at least partially due to the ability of L-GpNA to serve as an acceptor, resulting in a transpeptidation reaction, which is faster than the hydrolysis reaction. Therefore, to study the hydrolysis reaction in isolation, D-GpNA was used as the substrate without any added acceptor."}, "[2]": {"system": "T2, N[C@@H](CCC(=O)Nc1ccc([N+](=O)[O-])cc1)C(=O)O", "T2 construct": "lacking the transmembrane domain; made in house; host or cells: Pichia pastoris", "assay": "Initial rate studies with D-GpNA and L-GpNA, with or without acceptor GlyGly", "type": "biochemical, human", "conditions": "pH 7.4, 37.0 °C", "procedure": "as §1, §2, §3, §4"}},
  "data": [
    {"substance": "Human GGT1 (Homo sapiens)", "values": [
      {"measurement": "Km", "setting": "[1]; other: minus acceptor", "value": "160 ± 20", "unit": "µM"},
      {"measurement": "Km", "setting": "[1]; other: plus acceptor GlyGly", "value": "4200 ± 100", "unit": "µM"},
      {"measurement": "Km", "setting": "[2]; other: minus acceptor", "value": "830 ± 60", "unit": "µM"},
      {"measurement": "Km", "setting": "[2]; other: plus acceptor GlyGly", "value": "1200 ± 100", "unit": "µM"}
    ]}
  ]
}
